One data set addresses T1, Mouse IL12 (unmodified).
T1 chain 1: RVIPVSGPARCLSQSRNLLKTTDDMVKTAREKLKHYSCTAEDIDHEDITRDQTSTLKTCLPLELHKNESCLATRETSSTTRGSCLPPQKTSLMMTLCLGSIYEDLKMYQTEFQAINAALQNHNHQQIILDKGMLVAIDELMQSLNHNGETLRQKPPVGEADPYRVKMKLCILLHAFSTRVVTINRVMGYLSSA
T1 chain 2: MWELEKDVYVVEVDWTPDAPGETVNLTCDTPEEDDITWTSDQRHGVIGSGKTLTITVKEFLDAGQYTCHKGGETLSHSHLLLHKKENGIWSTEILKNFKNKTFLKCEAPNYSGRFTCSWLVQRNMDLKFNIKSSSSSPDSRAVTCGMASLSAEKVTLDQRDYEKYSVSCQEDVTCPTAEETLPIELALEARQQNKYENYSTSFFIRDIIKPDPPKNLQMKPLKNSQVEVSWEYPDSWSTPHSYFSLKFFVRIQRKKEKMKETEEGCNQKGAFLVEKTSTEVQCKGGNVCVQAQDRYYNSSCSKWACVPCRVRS

B1: Recombinant mouse MMP9 (protein)
chain: FQTFKGLKWDHHNITYWIQNYSEDLPRDMIDDAFARAFAVWGEVAPLTFTRVYGPEADIVIQFGVAEHGDGYPFDGKDGLLAHAFPPGAGVQGDAHFDDDELWSLGKGVVIPTYYGNSNGAPCHFPFTFEGRSYSACTTDGRNDGTPWCSTTADYDKDGKFGFCPSERLYTEHGNGEGKPCVFPFIFEGRSYSACTTKGRSDGYRWCATTANYDQDKLYGFCPTRVDATVVGGNSAGELCVFPFVFLGKQYSSCTSDGRRDGRLWCATTSNFDTDKKWGFCPDQGYSLFLVAAHEFGHALGLDHSSVPEALMYPLYSYLEGFPLNKDDIDGIQYLYGRGSKPDPRPPATTTTEPQPTAPPTMCPTIPPTAYPTVGPTVGPTGAPSPGPTSSPSPGPTGAPSPGPTAPPTAGSSEASTESLSPADNPCNVDVFDAIAEIQGALHFFKDGWYWKFLNHRGSPLQGPFLTARTWPALPATLDSAFEDPQTKRVFFFSGRQMWVYTGKTVLGPRSLDKLGLGPEVTHVSGLLPRRLGKALLFSKGRVWRFDLKSQKVDPQSVIRVDKEFSGVPWNSHDIFQYQDKAYFCHGKFFWRVSFQNEVNKVDHEVNQVDDVGYVTYDLLQCP
For B1, in the data set with IL12Rβ1-VP-IL12, the “proteolytic cleavage, SDS-PAGE (30 min, 37 C)” value was “MMP2 and MMP9 fully cleaved the IL12Rβ1 portion, yielding IL12 heterodimer (-60 kDa)”. Moreover, the “proteolytic cleavage, SDS-PAGE” value with Mouse IL12 (unmodified) is “These enzymes had no effect on IL12 itself”.
